Legend:
Conditions in all cases: none besides dye labels, binding temperature not given
PARP2 (mouse) [1] = test: EMSA
PARP2 (mouse) [2] = test: spFRET
PARP2 (mouse) [3] = test: EMSA; remark: listed apart in the source

**Q.** How did the K half (PARP2 (mouse) [1]) turn out when NP nucleosome (603, 187 bp) was run?
**A.** The K half was 40 nM.

**Q.** And the K half (PARP2 (mouse) [2])?
**A.** Its K half is 19 nM.

**Q.** And the K half (PARP2 (mouse) [3])?
**A.** Its K half is 40 nM.
